Test results from patent US20240325555A1 (LANOVA MEDICINES, published 2024).
Positions count from the first letter of the chain named.

T1: human LIV-1 (human, UniProt Q13433 29-755)
T1 sequence (looked up): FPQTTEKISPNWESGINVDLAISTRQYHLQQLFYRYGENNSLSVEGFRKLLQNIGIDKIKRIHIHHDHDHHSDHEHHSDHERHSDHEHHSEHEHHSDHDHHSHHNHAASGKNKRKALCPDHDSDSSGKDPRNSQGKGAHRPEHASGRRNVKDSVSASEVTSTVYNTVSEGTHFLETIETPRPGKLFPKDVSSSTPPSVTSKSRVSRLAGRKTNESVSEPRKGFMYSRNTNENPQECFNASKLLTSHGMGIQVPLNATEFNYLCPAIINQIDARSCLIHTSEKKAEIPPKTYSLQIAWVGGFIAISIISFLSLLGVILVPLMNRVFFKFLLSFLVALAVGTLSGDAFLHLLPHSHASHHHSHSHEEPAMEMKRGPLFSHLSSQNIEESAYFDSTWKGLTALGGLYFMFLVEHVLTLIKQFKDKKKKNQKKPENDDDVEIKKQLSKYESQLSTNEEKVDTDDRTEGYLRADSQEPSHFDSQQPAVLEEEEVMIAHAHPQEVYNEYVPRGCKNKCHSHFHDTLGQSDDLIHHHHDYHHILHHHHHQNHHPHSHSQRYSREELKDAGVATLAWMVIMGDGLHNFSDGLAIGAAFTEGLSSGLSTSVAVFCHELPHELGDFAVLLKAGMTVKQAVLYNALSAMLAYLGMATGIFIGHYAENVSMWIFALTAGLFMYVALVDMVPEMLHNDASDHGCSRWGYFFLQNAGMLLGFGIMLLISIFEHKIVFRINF

B1: 50H12B3 (antibody, V domains shown)
VH: QVQLKQSGPGLVQPSQSLSITCTVSGFSLTSYGVHWVRQSPGKGLEWLGVIWTGGTTDYNAAFKSRLSISKDNSKSQVFFKMNSLQANDTAIYYCARGPSSYWGQGTLVTVSA
VL: DIVMTQSQKFMSTSVGDRVSVTCKASQNVDTNVVWYQQKPGQSPKALIHSTSYRYSGVPDRFTGSGSGTDFTLTISNVQSEDLAEYFCQQYNNYPWTFGGGTKLEIK
notes: Tested as chimeric antibody
B2: 56B3E6 (antibody, V domains shown)
VH: EVQLQQSGAELVRSGASVKLSCTASGFNIKDYYIHWVKQRPEQGLEWIGWIDPENDDTEYAPKFQGKATMTADTSSNTAYLHLSSLTSEDTAVYYCPHGGGFRVFDSWGQGTTLTVSS
VL: DVLMTQTPLSLPVSLGDQASISCRSSQDIVHSNGNTYLEWYLQKPGQSPKLLIYKVSNRFSGVPDRFSGSGSGTDFTLKISRVEAEDLGVYYCFQGSHVPWTFGGGTKLEIK
notes: Tested as chimeric antibody
B3: 69B3D6 (antibody, V domains shown)
VH: QVQLQQSGPELVKPGASVRISCKASGYTFTSYHMHWVKQRPGQGLEWIGWIYPGNVKNQSNEKFKGKATLTADKSSSTAYMQLSSLTSEDSAVYFCARSDITRAFFAYWGQGTLVTVSA
VL: B2 VL with D28S, W101Y
notes: Tested as chimeric antibody
B4: 72B12F1 (antibody, V domains shown)
VH: EVQLQQSGAELVKPGASVKLSCTASGFNIKDTYMHWVKQRPEQGLEWIGRIDPANGNTKNDPRFQGKATITADTSSNTAYLQLSRLTSEDTAVYYCAGGGITTVVPDHWGQGTTLTVSS
VL: B2 VL with L3V, D28S, I29L, E39Q, Y92F, F94S, G96S, S97T, W101Y
notes: Tested as chimeric antibody
B5: 290F10G10.p1.Z5 (antibody, V domains shown)
VH: EVQLVQSGAEVKKPGASVKVSCKASGYTFTSYWIHWVRQAPGQGLEWMGTIYPGDADTRSTQKFKDRVTVTADKSTSTVYMELSSLRSEDTAVYYCARSLIHDDYDKYYFDYWGQGTTVTVSS
VL: DIQMTQSPSSLSASVGDRVTITCKARQDINKYIAWYQQKPGKAPKLLIHYTSILQPGIPSRFSGSGSGRDYTFTISSLQPEDIATYYCLQYDYFFTFGGGTKVEIK
B6: 290F10G10.p1.Z10 (antibody, V domains shown)
VH: B5 VH with A97T
VL: B5 VL with H49Y, I58V
B7: 290F10G10.p1.Z9 (antibody, V domains shown)
VH: B5 VH with M48I, R67K, V68A
VL: B5 VL with Q38H, A43G
B8: 290F10G10.p1.Z1 (antibody, V domains shown)
VH: B5 VH with V70M, K74T
VL: B5 VL with H49Y, I58V
B9: 290F10G10.p1.Z12 (antibody, V domains shown)
VH: B5 VH with A97T
VL: B5 VL with Q38H, A43G
B10: 290F10G10.p1.Z8 (antibody, V domains shown)
VH: B5 VH with M48I, R67K, V68A
VL: B5 VL
B11: 290F10G10.p1.Z3 (antibody, V domains shown)
VH: B5 VH with V70M, K74T
VL: B5 VL with Q38H, A43G
B12: 290F10G10.p1.Z7 (antibody, V domains shown)
VH: B5 VH with M48I, R67K, V68A
VL: B5 VL with H49Y, I58V
B13: 290F10G10.p1.Z6 (antibody, V domains shown)
VH: B5 VH
VL: B5 VL with Q38H, A43G
B14: 290F10G10.p1.Z4 (antibody, V domains shown)
VH: B5 VH
VL: B5 VL with H49Y, I58V
B15: 290F10G10.p1.Z13 (antibody, V domains shown)
VH: B5 VH with M48I, R67K, V68A, A97T
VL: B5 VL with H49Y, I58V
B16: 290F10G10.p1.Z11 (antibody, V domains shown)
VH: B5 VH with A97T
VL: B5 VL
B17: 124H4D11.p2.z1 (antibody, V domains shown)
VH: QVQLVQSGAEVVKPGASVKVSCKASGFNIKDYYMHWVRQAPGQGLEWIGWIDPENDDTEYDPKFQGRVTMTADTSTSTVYMELSSLRSEDTAVYYCAARYYAFDYWGQGTMVTVSS
VL: DVQMTQSPSSLSASVGDRVTITCRSSQSIVHSNANTYLEWYLQKPGKSPKLLIYKVSNRFSGVPDRFSGSGSGTDFTLTISSLQPEDFATYYCFQGSQVPPTFGQGTRLEIK
B18: 124H4D11.p2.z13 (antibody, V domains shown)
VH: B17 VH with Q3P, V20L, R38K, V68A, V79A, M81L, A97N, M111T
VL: B17 VL with Q3L, A13V, V19A, T22S, D75E, L83V, A89G, T90V, Q105G
B19: 124H4D11.p2.z7 (antibody, V domains shown)
VH: B17 VH with Q3P, V68A, V79A, A97N, M111T
VL: B17 VL with Q3L, D75E, L83V, T90V
B20: 124H4D11.p2.z12 (antibody, V domains shown)
VH: B17 VH with Q3P, V20L, R38K, V68A, V79A, M81L, A97N, M111T
VL: B17 VL with Q3L, D75E, L83V, T90V
B21: 124H4D11.p2.z3 (antibody, V domains shown)
VH: B17 VH
VL: B17 VL with Q3L, A13V, V19A, T22S, D75E, L83V, A89G, T90V, Q105G

What follows are binders tested against T1, human LIV-1 (assay: cell-based or functional assay).

ADCC reporter EC50 [nM] | ADCC reporter Top (RFU) | Binder
0.2 | 95600 | B1
1.3 | 52300 | B2
25.3 | 47200 | B3

Biological target: T1, human LIV-1
Experiment: cell-based or functional assay
Remark: another data set of the same source

Internalization EC50 [nM] | Internalization Top (RFU) | Binder
5 | 388000 | B2
7.2 | 353000 | B4

Each binder was assayed against T2, cynomolgus LIV-1 (cynomolgus, UniProt A0A2K5WH46 30-741) (assay: FACS, cyno LIV-1 cells).
Target sequence in this assay (A0A2K5WH46 entry or part of it): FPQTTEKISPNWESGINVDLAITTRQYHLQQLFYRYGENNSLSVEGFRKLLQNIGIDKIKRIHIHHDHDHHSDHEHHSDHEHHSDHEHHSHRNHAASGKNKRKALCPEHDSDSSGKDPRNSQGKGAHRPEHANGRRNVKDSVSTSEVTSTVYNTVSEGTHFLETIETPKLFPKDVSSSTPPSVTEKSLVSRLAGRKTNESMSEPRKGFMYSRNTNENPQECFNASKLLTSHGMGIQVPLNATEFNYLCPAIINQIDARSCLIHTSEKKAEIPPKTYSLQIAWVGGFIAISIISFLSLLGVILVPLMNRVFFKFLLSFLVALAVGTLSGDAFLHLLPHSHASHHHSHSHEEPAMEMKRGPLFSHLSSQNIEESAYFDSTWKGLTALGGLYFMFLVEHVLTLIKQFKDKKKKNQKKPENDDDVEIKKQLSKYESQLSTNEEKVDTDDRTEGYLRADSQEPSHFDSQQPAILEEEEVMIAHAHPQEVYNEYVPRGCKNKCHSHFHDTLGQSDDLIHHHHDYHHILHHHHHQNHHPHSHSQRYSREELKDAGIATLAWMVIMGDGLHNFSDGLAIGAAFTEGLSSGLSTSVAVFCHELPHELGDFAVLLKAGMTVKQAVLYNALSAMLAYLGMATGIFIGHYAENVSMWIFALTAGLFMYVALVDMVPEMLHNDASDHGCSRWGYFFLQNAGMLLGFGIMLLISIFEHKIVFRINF

EC50 [nM] | Top (MFI) | Binder
0.5 | 7370 | B5
0.69 | 6740 | B6
0.68 | 7630 | B7
0.85 | 7190 | B8
0.38 | 7510 | B9
0.36 | 7190 | B10
0.4 | 6750 | B11
0.37 | 7150 | B12
0.46 | 6890 | B13
0.34 | 7140 | B14
0.46 | 7180 | B15
0.32 | 7410 | B16

The binders below were run against T1, human LIV-1 (assay: FACS, human LIV-1 cells).
Method: (§1) In this example, cell based binding of humanized antibodies (hu Abs) on human LIV-1-expressing cells were assessed using flow cytometry.
(§2) Cell based binding of hu-Abs on human LIV-1 expressing cells were assessed using flow cytometry. Briefly, the HEK293/H_LIV-1 cells were incubated with hu-Abs (from 100 nM, 6 folds dilution, 8 points). After incubation at 4° C. for 60 minutes, the cells were washed with FACS buffer twice, then stained with fluorescent conjugated secondary antibody at 4° C. for 30 minutes. After that the cells were washed twice and analyzed by flow cytometry.

EC50 [nM] | Top (MFI) | Binder
0.32 | 7390 | B5
0.49 | 7290 | B6
0.51 | 7940 | B7
0.56 | 7540 | B8
0.26 | 7920 | B9
0.27 | 7540 | B10
0.27 | 7600 | B11
0.28 | 7680 | B12
0.35 | 7420 | B13
0.24 | 7790 | B14
0.32 | 7630 | B15
0.25 | 7820 | B16

What follows are binders tested against T1, human LIV-1 (assay: FACS, HEK293/H_LIV-1 cells).
Method: (§3) In this example, cell based binding of chimeric Abs on human and cyno LIV-1 over-expressing HEK 293 cells were assessed using flow cytometry.
(§4) Briefly, cells were incubated with chimeric Abs (from 100 nM, 5 folds dilution, 8 points). After incubation at 4° C. for 60 minutes, the cells were washed with 2% FBS/PBS buffer twice, then stained with fluorescent conjugated secondary antibody at 4° C. for 30 minutes. After that the cells were washed twice and resuspended in 80 μL of 2% FBS/PBS buffer. Fluorescent signal of binding was detected using Agilent. The EC50 was calculated using the GraphPad Software (LaJolla, CA).

EC50 [nM] | Top (MFI) | Binder
0.23 | 63000 | B1
0.13 | 13300 | B2
0.79 | 10700 | B4
0.18 | 11500 | B3

Biological target: T1, human LIV-1
Experiment: FACS, HEK293/H_LIV-1 cells
Remark: another data set of the same source
Method: as §1, §2

EC50 [nM] | Top (MFI) | Binder
0.89 | 16800 | B17
7.48 | 17000 | B18
37.2 | 15800 | B19
– | 15800 | B20
0.12 | 19400 | B21

These binders were tested against T2, cynomolgus LIV-1 (assay: FACS, HEK293/Cyno_LIV-1 cells).
Method: as §3, §4

EC50 [nM] | Top (MFI) | Binder
0.21 | 35900 | B1
0.21 | 9280 | B2
0.36 | 7470 | B4
0.17 | 6600 | B3

Biological target: T2, cynomolgus LIV-1
Experiment: FACS, HEK293/Cyno_LIV-1 cells
Remark: another data set of the same source

EC50 [nM] | Top (MFI) | Binder
0.29 | 8200 | B17
– | 9030 | B18
1.48 | 7750 | B19
3.8 | 7570 | B20
0.04 | 8300 | B21
